Experimental data reported in patent US20260007750A1.

B1: Pak2 kinase (protein)
chain: SDNGELEDKPPAPPVRMSSTIFSTGGKDPLSANHSLKPLPSVPEEKKPRHKIISIFSGTEKGSKKKEKERPEISPPSDFEHTIHVGFDAVTGEFTGMPEQWARLLQTSNITKLEQKKNPQAVLDVLKFYDSNTVKQKYLSFTPPEKDGFPSGTPALNAKGTEAPAVVTEEEDDDEETAPPVIAPRPDHTKSIYTRSVIDPVPAPVGDSHVDGAAKSLDKQKKKTKMTDEEIMEKLRTIVSIGDPKKKYTRYEKIGQGASGTVFTATDVALGQEVAIKQINLQKQPKKELIINEILVMKELKNPNIVNFLDSYLVGDELFVVMEYLAGGSLTDVVTETCMDEAQIAAVCRECLQALEFLHANQVIHRDIKSDNVLLGMEGSVKLTDFGFCAQITPEQSKRSTMVGTPYWMAPEVVTRKAYGPKVDIWSLGIMAIEMVEGEPPYLNENPLRALYLIATNGTPELQNPEKLSPIFRDFLNRCLEMDVEKRGSAKELLQHPFLKLAKPLSSLTPLIMAAKEAMKSNR

Key:
Pak2 kinase = Pak2 kinase (UniProt Q13177); assay: cell-based or functional assay
[1] = target: HIV-1 Nef protein (wild-type, HIV-1 Clade B)

| Molecule | phosphorylation of Pak2 at S55, quantitative phosphoproteomics of CAR T cells stimulated by NALM6 cells (Nef-WT compared to NefAxxA) (log2 fold change) (Pak2 kinase) | phosphorylation of Pak2 at S152, quantitative phosphoproteomics of CAR T cells stimulated by NALM6 cells (Nef-WT compared to NefAxxA) (log2 fold change) (Pak2 kinase) | Pak2 phosphorylation by gel electrophoresis / Western blot [1] | Pak2 phosphorylation by gel electrophoresis / Western blot (NefWP (Nef variant)) | Pak2 phosphorylation by gel electrophoresis / Western blot (NefD123G (Nef variant)) |
| --- | --- | --- | --- | --- | --- |
| HIV-1 Nef protein (wild-type, HIV-1 Clade B) | 2.15 | 1.17 | – | – | – |
| B1 | – | – | Nef variants that promote CAR T cell activity in vivo (Nef WT, NefWP and NefD123G) but not NefAxxA expressing CARs also promoted Pak2 phosphorylation | Nef variants that promote CAR T cell activity in vivo (Nef WT, NefWP and NefD123G) but not NefAxxA expressing CARs also promoted Pak2 phosphorylation | Nef variants that promote CAR T cell activity in vivo (Nef WT, NefWP and NefD123G) but not NefAxxA expressing CARs also promoted Pak2 phosphorylation |
